# Data reported in patent publication US12390517B2, “Compositions, methods and uses for eliciting an immune response” (Griffith University, priority 2018, dated 2025).
# B1: MsrB: recombinant MsrB domain, his-tag removed (SEQ ID NO:31), given to mice with Freund's adjuvant (protein)
# chain: GSHMKAATYKKPSDAELKRTLTEEQYQVTQNSATEYAFSHEYDHLFKPGIYVDVVSGEPLFSSADKYDSGCGWPSFTRPIDAKSVTEHDDFSFNMRRTEVRSRAADSHLGHVFPDGPRDKGGLRYCINGASLKFIPLEQMDAAGYGALKGKVK
# modifications: Recombinant MsrB
# B2: MsrA: recombinant MsrA domain, his-tag removed (SEQ ID NO:28), given to mice with Freund's adjuvant (protein)
# chain: GSHMKHSFYKPDTQKKDSAIMNTRTIYLAGGCFWGLEAYFQRIDGVVDAVSGYANGNTENPSYEDVSYRHTGHAETVKVTYDADKLSLDDILQYYFRVVDPTSLNKQGNDTGTQYRSGVYYTDPAEKAVIAAALKREQQKYQLPLVVENEPLKNFYDAEEYHQDYLIKNPNGYCHIDIRKADEPLPG
# modifications: Recombinant MsrA
# Experiments:
# [1] = molecular target: T1, recombinant MsrA/B (methionine sulfoxide reductase) from N. gonorrhoeae 1291, amino acids 30-522 of SEQ ID NO: 1 (recombinant with 6-His tag SEQ ID NO: 15); tag (Neisseria gonorrhoeae, UniProt P14930, E520K); experiment: Surface plasmon resonance (SPR) affinity assay of Met(O) binding to immobilized MsrA/B; parameters: species or system Neisseria gonorrhoeae 1291; details: read-out: KD (equilibrium dissociation constant), Biacore T200, MsrA/B immobilized on CM5 chip, Met(O) 0.16 to 100 nM, single cycle kinetics, absence of serum/antibody
# T1 construct: 6-His tag (N); thrombin cleavage site (N); made in house; host or cells: E. coli BL21 Star (DE3)pLysS
# T1 sequence (P14930 with tags, fused parts or gaps E520K): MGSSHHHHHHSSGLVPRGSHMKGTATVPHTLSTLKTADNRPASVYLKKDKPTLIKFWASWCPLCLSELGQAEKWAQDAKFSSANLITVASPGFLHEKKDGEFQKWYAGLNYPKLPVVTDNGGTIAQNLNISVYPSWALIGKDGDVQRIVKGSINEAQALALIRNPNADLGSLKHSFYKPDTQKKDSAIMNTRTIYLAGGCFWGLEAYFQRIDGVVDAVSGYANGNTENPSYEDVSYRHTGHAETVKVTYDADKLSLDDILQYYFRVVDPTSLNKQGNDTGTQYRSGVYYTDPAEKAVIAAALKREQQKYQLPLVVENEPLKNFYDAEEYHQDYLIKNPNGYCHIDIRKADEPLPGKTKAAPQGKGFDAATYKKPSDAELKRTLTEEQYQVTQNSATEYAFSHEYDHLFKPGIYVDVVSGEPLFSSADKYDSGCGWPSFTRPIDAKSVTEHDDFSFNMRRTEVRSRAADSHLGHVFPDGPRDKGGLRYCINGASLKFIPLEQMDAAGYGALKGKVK
# Procedure: The msr gene was amplified from N. gonorrhoeae 1291 using primers msrexp_NdeIF (5′-[…]-3′; SEQ ID NO:20) and msrexp_XhoIR (5′-[…]-3′; SEQ ID NO:21) and the resulting PCR product was cloned into pET15b to obtain a Msr expression construct pET15bmsr. The construct pET15bmsr was transformed into E. coli BL21 Star (DE3)pLysS host strain (Novagen) and MsrA/B was overexpressed and purified. Briefly, expression was induced by 0.1 mM IPTG at an optical density at 600 nm (OD600) of 0.4 for 24 hr at room temperature. Cell cultures were harvested and the cell pellet was re-suspended in buffer A. Cells were lysed by sonication, centrifuged and the supernatant was applied to a column packed with TALON™ metal affinity resins (Clontech laboratories, Inc). […] Fractions were collected and analyzed by 4-12% NuPAGE® Novex Bis-Tris Gels (Invitrogen) stained with Coomassie Blue, and by Western blot of anti-His polyclonal antisera. […]
# SPR assays were performed using a Biacore T200 for affinity analysis and a Pall Pioneer FE for competition assays. […] Data was analyzed using the Biacore T200 evaluation software package. […] Data was collected using the Pioneer Software package and analyzed using Qdat analysis software. The percentage blocking was calculated based on the relative RMax of the Met(O) injection with and without serum, and the serum with and without Met(O). […]
# [2] = test system: whole cell N. gonorrhoeae 1291; experiment: Whole cell ELISA of mouse antisera against N. gonorrhoeae 1291 strains; assay type: binding; details: antisera of 5 mice immunized with Freund's adjuvant; for Whole cell ELISA titre to the mutant strain: 1291 msr::kan mutant; for Whole cell ELISA average titre to 1291 Δmsr_C: complemented strain; for Whole cell ELISA average titre to 1291: wild-type 1291
# Procedure: Groups of 10 female BALB/c mice (6 weeks old) were immunized subcutaneously with 5 μg of recombinant MsrA/B with either Alhydrogel® (aluminium hydroxide, InvivoGen) or Freund's (FCA/FIA, Sigma-Aldrich) adjuvant on days 0, 21, and 28. Terminal bleeds were collected on day 42. For Freund's adjuvant, Freund's complete adjuvant (FCA) was used on day 0 and Freund's incomplete adjuvant (FIA) was used in the boosts of day 21 and 28. Pre-bleed of each mouse was collected 4 days before immunization. This study was carried out in accordance with the recommendations of the Australian Code for the Care and Use of Animals for Scientific Purposes, the Griffith University Animal Ethics Committee (AEC). The protocol was approved by the Griffith University AEC.
# For whole cell ELISA, bacteria were grown on BHI or GC plates for 16 hr. Cells were harvested and resuspended in PBS at an OD600 of 0.2. Microtitre plate wells were filled with 50 μl of the bacterial suspension and dried at room temperature overnight in the laminar flow cabinet. The bacteria in the dried wells were then heat-killed for 1 hr in 56° C. For recombinant protein ELISA, wells of plates were coated with 100 ng of purified recombinant MsrA/B protein in 100 μl of coating buffer (0.5M carbonate/bicarbonate buffer, pH 9.6) for 1 hr at room temperature. All ELISAs were performed with mouse pre-immune or MsrA/B immunized sera, and secondary antibody as specified in the results (polyclonal anti-mouse Ig HRP (Dako) or IgG1, IgG2a, IgG2b, IgG3 or IgM HRP (Thermofisher Scientific)). The substrate TMB (3,3′, 5,5;-tetramethylbenzidine) solution (Thermofisher Scientific) was used as per manufacture's instruction. Equal amount of 1 N hydrochloric acid was added to stop the reaction. Absorbance was read in a TECAN Model Infinite 200 Pro plate reader at 450 nm.
Molecule,Kd [1],Whole cell ELISA titre to the mutant strain [2],Whole cell ELISA average titre to 1291 Δmsr_C [2],Whole cell ELISA average titre to 1291 [2]
"C[S+]([O-])CC[C@H](N)C(=O)O (stereo partly shown) [Met(O), methionine sulfoxide]",15.4 ± 3.7 nM,–,–,–
B1,–,"1,000","40,000","16,000"
B2,–,"1,000","20,000","10,000"
